Data on 40 sequences can be found in the nanobody polyreactivity screen of Harvey et al. (2022).

A short description of the series: yeast display, Sf9 membrane polyspecificity reagent, FACS + sequencing; frameworks hold sequencing errors. In short, it runs like this:
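A nanobody's polyreactivity label depends on the gate it was sorted from. Yeast display cells were stained with 10% biotinylated, detergent-solubilized Sf9 membrane reagent for 1 hour at 4 °C, enriched on streptavidin microbeads and sorted by FACS. The low and high (top ~1%) gates were set on anti-HA fluorescence for expression and streptavidin fluorescence for reagent binding.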
In the case of “QVQLVESGGGLVQAGGSLRLSCAASGRIFIGNAMGWYRQAPGKERELVAAISRRGGTTYYADSVKGRFTISRDNAKNTVYLQMNSLKPEDTAVYYCNKEWTYEHGYWGQGTQVTVSS”, the “polyreactivity (PSR sort gate)” value was “high polyreactivity”.

On to “QVQIVDSGGGLVQAGGRLRLSCAPSGITFVYYAMGWYRQAPGKEREFVASITSNGVSTYYADSVKGRYTISRDNAMNTVYLQMNSLKPEDTAVYYCAADGTYRNYWYDYWGQGTQVTVSS”, for which the “polyreactivity (PSR sort gate)” value is given as “low polyreactivity”.

For the sequence “QVQLVESGGGLVQAGGSLRLSCAASGSIFRWYAMGWYRQAPGKERELVASISSGTRTNYADSVKGRFTISRDNAKNTVYLQMNSLKPEDTAVYYCAAPYVKRWWGYGYWGQGTQVTVSS”, the “polyreactivity (PSR sort gate)” value was “high polyreactivity”.

As to “QVHLVESGGGLVQAGGSLRLSCAASGFTIASYDMGWYRQAPGKERELVAAISKGGGRTYYADSVKGRFTISRDNSKNTVYLQMNSLQPEDTAVYYCAAYAPYPRRAYDYWGQGTQVTVSS”, the “polyreactivity (PSR sort gate)” value was “low polyreactivity”.

As to “QVQLVESGGGIVQAGGSLRLSCAASGRTFVVNDMGWYRQAPGKERELVAAINYNAGSTFYADSVKGRFTISRDNAKNTVYLQMNSLKPEDTAVYYCATVVYGYVEYDYWGQGTEVTVSS”, the “polyreactivity (PSR sort gate)” value is “low polyreactivity”.

On to “QVQLVESGGGLVQAGGSLRLSCAASGRIFRRKTMGWYRQAPGKERELVAAITSRGGSTYYADSVKGRFTISRDNAKNTFYLKMNSLIPEDTGFYYCNTRVVPEIYDYWGQGSQVTVSS”, for which the “polyreactivity (PSR sort gate)” value is “high polyreactivity”.

Take “QVQLVESGGGLVQARGSLRLSCAASGRNFADYAMGWYRQAPGKERELVAAIDWSDGSTKYADSVKGRFTISRDNAKNTVYLQINSLKPEDTAVYYCGADYWPRDGLGWWYDYWGQGTQVTVSS”: the “polyreactivity (PSR sort gate)” value was “low polyreactivity”.

As for “QVQLVESGGGLVQAGGSLRLSCAASGSTFIDYAMGWYRQAPGKERELVAAIDQGGGRTYYADSVKGRFTISRDNAKNTVYLQMNSLKPEDTAVYYCAATSRVVGEGGYEYWGQGTQVTVSS”, the “polyreactivity (PSR sort gate)” value was “low polyreactivity”.

On to “QVQLVESVGCLVQAGGSLRLSCASTGRTFTPYAMGWYRHRPGKESEFVPAIDTSGGSTYADSVKGRFTISRDNANNTVYLQMNSLKPEDTAVYYCATRGFYSWSYWYLWEYDYWGQGTQVTVSS”, for which the “polyreactivity (PSR sort gate)” value is reported as “low polyreactivity”.

For the sequence “QVQLVESGGGLVQAGGSHRLSCAASGIIFYRNAMGWYRQAPGKERELVATITVSSGSTYYADSVKGRFTISRDNAKNTVYLLMYSLKPEDTAVYYCNARYYYFSVRYKYDFNYWGQGTQVTVSS”, the “polyreactivity (PSR sort gate)” value is recorded as “high polyreactivity”.

For “QVQLVESGGGLVQAGGSLRLSCAASGSIFSYYAMGWYRQAPGKERELVAAITSGGSTYYSDSVKGRFTISRDNAKNTVYLQMNSLKPEDTAVYYCAREKWPSQYDYWGQGTQVTVSS”, the “polyreactivity (PSR sort gate)” value is recorded as “low polyreactivity”.

For “QVQLVESGGGLVQAGGSLRLSCAASGFTFPVYAMGWSRQAPGKERELVAAISWSGGGTYYADSVKGRFTISRDNAKNTVYVQMNSLKPEDTAVYYCAVEDLSHAYVQHYRYGYGYWGQGTQVTVSS”, the “polyreactivity (PSR sort gate)” value is on record as “low polyreactivity”.

Consider “QVQLVESGGVLVQAGGSLRLSCAASGSTFQKYTMGWYRQAPGKERELVAGISGGGSTYYADSVKGRFTISRDNAKNTVYLQMNSLKPEDTAVYSCAAETLYTGPPPRYDYWGQGTQVTVSS”, for which the “polyreactivity (PSR sort gate)” value is reported as “low polyreactivity”.

As to “QVQLVESGGGLVQAGGSLRLSCAASGYIFVWYAMGWSRQAPGKERELVATISGGGGTYYADSVKGRFTISRDNAKNNVYFQMNSLNPEDTAVYYCNKGVGWTEASPYSPEYDYWGQGTQVSVSS”, the “polyreactivity (PSR sort gate)” value is “low polyreactivity”.

Take “LVQLVESGGGLVQAGGSLRLSCAASGRTFDTYVMGWYSQAPGKERELVAAITTSGTSTYADSVKGRFTISRDNAKNTVYLQMNSLKPEDTAVYYCAADGPVYYSYVDWISFNEEYWGQGTQVTVSS”: the “polyreactivity (PSR sort gate)” value is recorded as “low polyreactivity”.

With “QVQLVESGGGLVQAGGTLRLSCAASGPMFTLNAMGWYRQAPGKERELVAAINRGGSTYYADSVRGRFTISRDNAKNTVYLQMNSLKPEDTAVYYCAARRRQGGHDYWGQGTQVTVSS”, the “polyreactivity (PSR sort gate)” value was “high polyreactivity”.

Consider “QVQLVESGGGIDKAGGSLRLSCAPSGGIFIRYAMGWYRQAPGKERELVAGIDSGGGTKYADSVKGRFTISRDNAKNTVYLQMNSLKPEDTAVYYCNGEVSVWPFSYDYWGQGTQVTVSS”, for which the “polyreactivity (PSR sort gate)” value is listed as “low polyreactivity”.

For “QVQLVESGGGLVQAGGSLRLICAASGFTFNFYAMGWYRQAPGKEMELVASITSSGARTYYADSVKGRFTISRDNAKNSVYLQMNSQKPEDTAVYYCAARVYRYSASRAYDYWGQGTQVTVSS”, the “polyreactivity (PSR sort gate)” value is listed as “high polyreactivity”.

As for “QVQIVESGGGLLQAGGSLRLSCAASGLTFGSYAMGWYRQAPGKERELVAAISRSGGSTYYADSVKGRFTISRDNAKNTVYLQMNSLKPEDTAVYYCNAVNPYYAPTERRVGFDYWGQGTQVTVSS”, the “polyreactivity (PSR sort gate)” value is “high polyreactivity”.

On to “QVQLQESGGGLVQAGGSLRLSCAASGSIFYKDDMGWYRQAPGKEREFVAGIDRGGTTNCAGSVKGRFTISRDNAKNTVYLQMISLKPEDTAVYYCAAYYPDIYPFIYRGQGTQVTVSS”, for which the “polyreactivity (PSR sort gate)” value is “high polyreactivity”.

For “QVQLGESGGGLVQAGGSLRLSCAASGITFGRKTMGWYRQAPGKERELVAAIDSGGNTYADSVKGRFTISRDNAKNTVYLQMNSLKPEDTAVYYCAVDGGEFSSYGYWGQGTQVTVSS”, the “polyreactivity (PSR sort gate)” value was “low polyreactivity”.

With “QVQLVESGGGLVQAGGSLRLSCAASGGTFWRNDMGWYRQAPGKERELVAAISYSGGTTYYADSVKGRFTISRDNAKNTVDLQMNSLKPEDTAVDYCATGGYSTRQSTFDYWGQGTQVTVSS”, the “polyreactivity (PSR sort gate)” value is reported as “low polyreactivity”.

In the case of “QVQLVESGGGLVQAGGSLRLSCAASGRIFAGYAMGWYRQAPGKERELVATISSGGSTYYADSVKGRFTISRDNAKNTVYLQMNSLKPEDTAVYYCAAEYGTRQYSSYYKLFNYWGQGTQVTVSS”, the “polyreactivity (PSR sort gate)” value is on record as “low polyreactivity”.

As to “QVQLVESGGGLVQAGGSLRLSCAASGFIFDQYAMGWYRQAPGKERELVAAITSGGDTNYADSVKGRFTISRDNAKNTVYFQMNSLKPEDTAVYYCNVDVPGVRFEYWGQGTQVTVSS”, the “polyreactivity (PSR sort gate)” value is on record as “low polyreactivity”.

Turning to “QVQLEESGGGLVQAGGSLRLSCAASGRIFRYYAMGWSRQAPGKERELVAGISRGTSTYYADSVKGRFTISRDNAKNTVYLQMNSLKPEDTAVYYCAKGSIQYFRPYTFYSWGQGTQVTVSS”, the “polyreactivity (PSR sort gate)” value is “high polyreactivity”.

For “QVQLVESGGGLVQAGGSLRISCAASGRIFIYNAMGWYRQAPGKERELVAAINRSGVSTHYADSVKGRFTISRDNAKNTVYLQMNSLIPEDTAVYYCARTVYGARSYDYWGQGTQVTVSS”, the “polyreactivity (PSR sort gate)” value was “low polyreactivity”.

In the case of “HVQLVESGGGLVQAGVSLRLSCAASGRIFVLYTRGWYRQAPGKDRELVAAISRRGGNTNYADSVKGRFTISRDNAMNTVYLQMNSLKPEDTAVYYCNARWTGARYYYYPMDYWGQGTQVTVSS”, the “polyreactivity (PSR sort gate)” value is recorded as “high polyreactivity”.

In the case of “QVQLVESGGGLVQAGGSVRLSCAASGSICFYAMGWYRQAPGKERELVAAISWRGGSTYYADSVKGRFTISRDNAKNTVYLQMNSLKPEDTAVYYCAKATRRYDVYTYGYWGQGTQVTVSS”, the “polyreactivity (PSR sort gate)” value is listed as “high polyreactivity”.

For “QVQLVESGGGLVQAGGSLRLSCAASGLTIGYYAMGWYRQAPGKERELVATITWRGVRTYYADSVKGRFTISRDNAKNTVYLQMNSLKPEDTAVYYCDKGYWSKGERWFGGFGYWGQGTQVTVSS”, the “polyreactivity (PSR sort gate)” value is on record as “low polyreactivity”.

For “QVQLVESGGGLVQAGGSLRLSCAASGLTLSYNAMGWYRPAPGKERELVAAIRSGGSTNYADAVKGRFTISRDNANNTVYLQMNSLKPEDTAVYYCAARCRYLPYRDGRYQSGYEYWGQGTQVTVSS”, the “polyreactivity (PSR sort gate)” value is given as “high polyreactivity”.

“QVQLVESGGGLVQAGGSLRLSCAASGFTFYWYTMGWYRPAPGKERELVATISGSGGRTYYADSVKGRFTISRDNAKNTVYLQMNSLKPEDSAVYYCNAGRPYKYGYWGQGTQVTVSS”: the “polyreactivity (PSR sort gate)” value is “high polyreactivity”.

As for “QVQLVESGGGLVQAGGSLRLSCAASGFIFGYYAMGWYRQAPGKERELVAAITRSGGSTRYADSVKGRFTISRDNANNNVYLQMNSLKPEDSAVYYCATRDGTHGYWGQGTQVTASS”, the “polyreactivity (PSR sort gate)” value is given as “high polyreactivity”.

As to “EVQLVESGGGLVQAGGSLRLSCAASGFIFVSYAMGWYRQAPGKERELVAAISWSGGNTYYADSVKGRFTISRDNAKNTVYLQMNSLKPEDTAVYYCNTDKRSYPTHRRDFGYWGQGTQVTVSS”, the “polyreactivity (PSR sort gate)” value is given as “low polyreactivity”.

Turning to “QVQLVESGGRLVQARGSLRLSCAPSGSIFYSNAMGSYRQAPGKEREFVAGIRSGGITNYADSVKGRFTISRDNAKNTVYLQMTSLKPEDTAVYYCAKLKDHGRYAYAFDYWRQGTQVTVSS”, the “polyreactivity (PSR sort gate)” value is listed as “low polyreactivity”.

Take “QVQLVESGGGLVQAGGSLRLSCAASGSNFAINAMGWYRQAPGKERELVAAIRYSTGRTYYADSVKGRFTISRDNAKNTVYLQMNSLKPEDTAVYYCAALGFTKYGSRFDYWGQGTQVTVSS”: the “polyreactivity (PSR sort gate)” value is “high polyreactivity”.

For “QVQLVESGGGLVQAGGSLRLSCAASGSTVFKNTMGWYRQAPGKEREFVAAIRWSTSRTYYADSVKGRFTISRDNAKNTVYLQMNSLKPEDTAVSYCNAGTSLSRRYPEDYYWGQGTLVTVSS”, the “polyreactivity (PSR sort gate)” value is recorded as “high polyreactivity”.

In the case of “QVQLVESGGGLVQAGGSLRLSCAASGGIFPLYTMGWYRQATGKERELVASNTGSRASTYYADSVKGRFTISRDKAKNTVYLPMNSLNPEDTGVYDCKADVYVYSVTSHYPSYRLDYWGQGTQVTVAS”, the “polyreactivity (PSR sort gate)” value is recorded as “high polyreactivity”.

With “QVQLVESGGGLLKAGGSLRLISAASGSIFGYNTMGWYRQAPGKERELVADISVSGDDTYYADSVKGRFTISRDNAKNTVYLQMNSLKPEDTAVSYCNAVEYFGYYNTYDYWGQGTQVTVSS”, the “polyreactivity (PSR sort gate)” value is on record as “low polyreactivity”.

With “QVQLVESGGGLVQAGGSLRLSCAASGSTFGLYAMGWYRQAPGKERELVAAISSRGSRTYYADSVKGRFTISRDNAKNTVYLQMNSLKPEDTAVYYCNALYASSVRHKVTYDYWGQGTQVTVSS”, the “polyreactivity (PSR sort gate)” value was “high polyreactivity”.

Take “QVQLVESGGGLVQAGGSLRLSCAASGRTFYDYTMGWYRQAPGKERELVAAISQRGGSTYYADSVKGRFTISRDNAKNTVYLQMNSLKPEDTAVYYCAARTSYSGNKYYYWGQGTQVTVSS”: the “polyreactivity (PSR sort gate)” value was “high polyreactivity”.
